Entries after “also recorded” stand apart in the source; their conditions may differ. Ends that are not written are not given here.

Results on 1 substance are retold here after patent US10023615B2, “Efficient transport into white blood cells” (priority 2008, dated 2018).

In data set [1] the test system is hAPP Tg mice (APP751 London and Swedish mutations). Kind of data set: Morris Water Maze in hAPP-transgenic mice. The data set is classed as in vivo, mouse. As for the experimental part: In order to determine the activity of the exemplary all-D retro-inverso IB(s) peptide XG-102 (SEQ ID NO: 233) in Alzheimer's disease, XG-102 (SEQ ID NO: 233) was evaluated in the hAPP-transgenic mice model overexpressing APP751 with London and Swedish mutations using the behavioral Morris Water Maze test as well as immunohistological tests measuring plaque load and ELISA tests measuring β-amyloid1-40 and β-amyloid1-42 levels in the brain of mice.
a) METHODS • i) Introduction • The study was designed to evaluate the efficacy of the test substance (XG-102, SEQ ID NO: 233) on behavioral, biochemical and histological markers using 5 months (±2 weeks) old female hAPP Tg mice. Therefore, mice were treated every two or three weeks up to 4 months and in the end of the treatment period behavior was evaluated in the Morris Water Maze. At sacrifice brain, CSF and blood were collected. Aβ40 and Aβ42 levels were determined in four different brain homogenate fractions as well as in CSF of Tg mice. Plaque load was quantified in the cortex and the hippocampus of 8 Tg animals per treatment group.
ii) Animals • Female Tg mice with a C57BU6xDBA background and an age of 5 months (±2 week) were randomly assigned to treatment groups 1 to 3 (n=12). […]

Data set [2] in a line: Stability of XG-102 stock solution and diluted formulations. It is filed as physicochemical. From the text: a) Materials and Methods • i) Animals • A total of twenty (20) male db/db mice (8 weeks old) were obtained from Charles River (Germany). Upon arrival, animals were group housed (n=6-7/group) and offered regular rodent chow (Altromin standard #1324 chow; C. Petersen, Ringsted, Denmark) and water ad libitum unless otherwise stated. • The mice were housed under a 12:12 L/D cycle (lights on at 4:00 and lights off at 16:00) and in temperature and humidity controlled rooms. • ii) Groups and Randomization • On day −4, mice were randomized according to blood glucose level (fasted; blood glucose measured on Biosen S line analyzer (EKF diagnostic, Germany) to participate in one of the following drug treatment groups (n=6): • 1) Vehicle control, S.C. (physiological saline) • 2) XG-102 (SEQ ID NO: 233); 1 mg/kg; s.c. • 3) XG-102 (SEQ ID NO: 233); 10 mg/kg; s.c • All doses listed were calculated for the free-base. Drug purity: 95.28%, peptide content: 78.0%. All compounds were administered sub-cutaneously (s.c.) in a volume of 3 ml/kg. The formulation instructions for vehicle control and XG-102 (SEQ ID NO: 233) were as follows: • First, XG-102 (SEQ ID NO: 233) was dissolved in the vehicle. The formulations (concentrations of 0.33 and 3.3 mg/ml, corresponding to the doses of 1 and 10 mg/kg, respectively) were prepared according to the procedure detailed below. Concentrations were calculated and expressed taking into account test items purity and peptide content (multiplier coefficient was 1.346). • Preparation of a stock solution: the freeze-dried test compound XG-102 (SEQ ID NO: 233) is thawed for one hour minimum and prepared as a stock solution in the vehicle at 1 mM (corresponding to 3.823 mg/mL). Aliquots are prepared for each treatment day and stored at approximately −80° C. Dilutions of this stock solution to the required concentrations are performed on each treatment day; • Storage of the stock solution: at approximately −80° C.; • Storage of the diluted preparations: at room temperature for 24 hours maximum. • Prior to solubilisation, the powder was stored at −20° C. […]

Regarding “dqsrpvqpflnIttprkprpprrrqrrkkrg (DQSRPVQPFLNLTTPRKPRPPRRRQRRKKRG; not fully specified (some residues); printed as dqsrpvqpflnIttprkprpprrrqrrkkrg) [XG-102]”, in data set [1] (0.1 mg/kg), the “learning performance between day 1 and day 4” value is “a tendency to have worse learning performance between day 1 and day 4; also recorded: a slightly poorer learning performance between the first and the last training day”. Besides, the “spatial learning in the MWM” value in data set [1] (0.1 mg/kg every two weeks or 10 mg/kg every three weeks s.c., four months) is listed as “remained widely uninfluenced”. In addition, the “stability of the stock solution” value in data set [2] (1 mM in vehicle, approximately −80° C.) is 3 months. Also, the “storage of unused diluted material” value in data set [2] (4-8° C.) is “up to 7 days”. In addition, the “stability of the diluted formulations for animal dosing” value in data set [2] (room temperature) was determined as 24 h.
